The record followed here is patent publication US20090285830A1 (published 2009).

T1: recombinant human lymphotoxin-α (LTα), homotrimer LTα3 (human, UniProt P01374 35-205)
T1 construct: One molecule is used for 'LTα' (plate ELISA), 'rhLTα' (BIACORE, phage ELISA) and 'human LTα3'; also called human LTα3; rhLTα
T1 sequence (looked up): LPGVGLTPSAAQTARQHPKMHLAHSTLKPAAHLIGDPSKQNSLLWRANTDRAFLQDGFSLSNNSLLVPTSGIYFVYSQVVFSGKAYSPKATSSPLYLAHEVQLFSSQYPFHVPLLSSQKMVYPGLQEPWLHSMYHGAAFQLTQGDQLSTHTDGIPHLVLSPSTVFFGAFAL

T2: recombinant human lymphotoxin-α (LTα), homotrimer LTα3 (human) (UniProt P01374)
T2 sequence (looked up): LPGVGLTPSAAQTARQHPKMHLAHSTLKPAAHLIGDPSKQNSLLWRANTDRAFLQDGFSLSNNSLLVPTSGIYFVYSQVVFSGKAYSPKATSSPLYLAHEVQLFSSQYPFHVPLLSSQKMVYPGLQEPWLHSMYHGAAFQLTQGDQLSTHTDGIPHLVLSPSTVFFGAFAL

B1: humanized 3F12 v4 (antibody, V domains shown)
VH: EVQLVESGGGLVQPGGSLRLSCAASGYTFSSYWIEWVRQAPGKGLEWVGEISPGSGSTNYNEEFKGRATISADNSKNTAYLQMNSLRAEDTAVYYCADGYHGYWGQGTLVTVSS
VL: DIQMTQSPSSLSASVGDRVTITCKSSQSLLYSTNQKNFLAWYQQKPGKAPKLLIYWASTRDSGVPSRFSGSGSGTDFTLTISSLQPEDFATYYCQQYYSYPRTFGQGTKVEIKR
B2: humanized 3F12 v2 (antibody, V domains shown)
VH: EVQLVESGGGLVQPGGSLRLSCAASGYTFSSYWIEWVRQAPGKGLEWVGEISPGSGSTNYNEEFKGRATFSADNSKNTLYLQMNSLRAEDTAVYYCADGYHGYWGQGTLVTVSS
VL: DIQMTQSPSSLSASVGDRVTITCKSSQSLLYSTNQKNFLAWYQQKPGKAPKLLIYWASTRDSGVPSRFSGSGSGTDFTLTISSLQPEDFATYYCQQYYSYPRTFGQGTKVEIKR
B3: humanized 3F12 v3 (antibody, V domains shown)
VH: EVQLVESGGGLVQPGGSLRLSCAASGYTFSSYWIEWVRQAPGKGLEWVGEISPGSGSTNYNEEFKGRATISADKSKNTLYLQMNSLRAEDTAVYYCADGYHGYWGQGTLVTVSS
VL: DIQMTQSPSSLSASVGDRVTITCKSSQSLLYSTNQKNFLAWYQQKPGKAPKLLIYWASTRDSGVPSRFSGSGSGTDFTLTISSLQPEDFATYYCQQYYSYPRTFGQGTKVEIKR
B4: humanized 3F12 version 8 (v5 with CDR-H3 G95A) (antibody, V domains shown)
VH: EVQLVESGGGLVQPGGSLRLSCAASGYTFSSYWIEWVRQAPGKGLEWVGEISPGSGSTNYNEEFKGRATFSADNSKNTAYLQMNSLRAEDTAVYYCADAYHGYWGQGTLVTVSS
VL: DIQMTQSPSSLSASVGDRVTITCKSSQSLLYSTNQKNFLAWYQQKPGKAPKLLIYWASTRDSGVPSRFSGSGSGTDFTLTISSLQPEDFATYYCQQYYSYPRTFGQGTKVEIK
B5: humanized 3F12 version 10 (v5 with CDR-H3 H100A) (antibody, V domains shown)
VH: EVQLVESGGGLVQPGGSLRLSCAASGYTFSSYWIEWVRQAPGKGLEWVGEISPGSGSTNYNEEFKGRATFSADNSKNTAYLQMNSLRAEDTAVYYCADGYAGYWGQGTLVTVSS
VL: DIQMTQSPSSLSASVGDRVTITCKSSQSLLYSTNQKNFLAWYQQKPGKAPKLLIYWASTRDSGVPSRFSGSGSGTDFTLTISSLQPEDFATYYCQQYYSYPRTFGQGTKVEIK
B6: chimeric anti-LTα antibody 2C8 (murine/human chimera) (antibody, human IgG1, kappa, V domains shown)
VH: EVQLQQSGPELVKPGASVKLSCKASGYTFTSYVIHWVKQKPGQGLEWIGYNNPYNDGTNYNEKFKGKATLTSDKSSSTAYMELSSLTSEDSAVYYCSRPTMLPWFAYWGQGTTLTVSA
VL: DIVMTQSHKFMSTSVGDRVSITCKASQAVSSAVAWYQQKPGQSPKLQIYSASHRYTGVPDRFTGSGSGTDFTFTISSVQAEDLAVYYCQQHYSTPWTFGGGTKVEIKR
notes: also called 2C8 chimera; 2C8.chimera
B7: humanized 2C8.v2 (antibody, IgG1, V domains shown)
VH: EVQLVESGGGLVQPGGSLRLSCAASGYTFTSYVIHWVRQAPGKGLEWVGYNNPYNDGTNYNEKFKGRATISSDKSKNTAYLQMNSLRAEDTAVYYCSRPTMLPWFAYWGQGTLVTVSS
VL: DIQMTQSPSSLSASVGDRVTITCRASQAVSSAVAWYQQKPGKAPKLQIYSASHRYTGVPSRFSGSGSGTDFTLTISSLQPEDFATYYCQQHYSTPWTFGQGTKVEIKR
notes: also called Version 2; wild-type 2C8.v2
B8: humanized 2C8.v7 (antibody, V domains shown)
VH: EVQLVESGGGLVQPGGSLRLSCAASGYTFTSYVIHWVRQAPGKGLEWVGYNNPYNDGTNYNEKFKGRATISSDKSKNTAYLQMNSLRAEDTAVYYCSRPTMLPWFAYWGQGTLVTVSS
VL: DIQMTQSPSSLSASVGDRVTITCRASQAVSSAVAWYQQKPGKAPKLLIYSASHRYTGVPSRFSGSGSGTDFTLTISSLQPEDFATYYCQQHYSTPWTFGQGTKVEIKR
B9: humanized 2C8.v16 (antibody, V domains shown)
VH: EVQLVESGGGLVQPGGSLRLSCAASGYTFTSYVIHWVRQAPGKGLEWVGYNNPYNDGTNYNEKFKGRFTISSDKSKNTAYLQMNSLRAEDTAVYYCSRPTMLPWFAYWGQGTLVTVSS
VL: DIQMTQSPSSLSASVGDRVTITCRASQAVSSAVAWYQQKPGKAPKLLIYSASHRYTGVPSRFSGSGSGTDFTLTISSLQPEDFATYYCQESYSTPWTFGQGTKVEIKR
notes: HC v12 = HC v2 + A67F
B10: humanized 2C8.v12 (antibody, V domains shown)
VH: EVQLVESGGGLVQPGGSLRLSCAASGYTFTSYVIHWVRQAPGKGLEWVGYNNPYNDGTNYNEKFKGRFTISSDKSKNTAYLQMNSLRAEDTAVYYCSRPTMLPWFAYWGQGTLVTVSS
VL: DIQMTQSPSSLSASVGDRVTITCRASQAVSSAVAWYQQKPGKAPKLLIYSASHRYTGVPSRFSGSGSGTDFTLTISSLQPEDFATYYCQQHYSTPWTFGQGTKVEIKR
notes: HC v12 = HC v2 + A67F); also called Version 12

For the first assay, the target named is T1, recombinant human lymphotoxin-α (LTα), …. The assay can be described thus: plate ELISA on coated LTα.
With B1, the “Relative binding (to the original chimera)” value is more than 500 x down.

Turning to B2, the “Relative binding (to the original chimera)” value is more than 1000 x down.

B3: the “Relative binding (to the original chimera)” value is more than 1000 x down.

A further assay addresses T2, recombinant human lymphotoxin-α (LTα), homotrimer LTα3 (human). Put plainly: plate-based ELISA against LTα.
Regarding B4, the relative binding (EC50 of the variant / EC50 of version 5) is more than 100.

Turning to B5, the relative binding (EC50 of the variant / EC50 of version 5) is more than 100.

In another assay the target is T1, recombinant human lymphotoxin-α (LTα), …. Put plainly: plate-based ELISA on human LTα, ratio to the chimera.
With B6, the “ELISA IC50 ratio” value was found to be 1.

Consider B7, for which the “ELISA IC50 ratio” value is 1.7.

In the case of B8, the “ELISA IC50 ratio” value amounted to 1.2.

With B9, the “ELISA IC50 ratio” value came to 0.6.

On to B10, for which the “ELISA IC50 ratio” value came to 1.
